Each sequence was assayed against HLA-A*02:02 (assay: IEDB peptide-MHC binding, purified MHC/competitive/radioactivity; ≥ and ≤ were set here for values at or beyond the usual limits of such assays). Settings: source organism: Vaccinia virus WR.

| Sequence | IC50 [nM] |
| --- | --- |
| TIAGGVCYYL | 0.036 |
| TIAHINTLI | 21 |
| TIAVSVYGA | 25 |
| TICLKNEGV | 494 |
| TIDAINKCV | 90 |
| TIDKSSPLYI | 387 |
| TIDNIVTSL | 178 |
| TIFDIVSKCI | 198 |
| TIGTIAGGV | 298 |
| TIKESLLKET | 1580 |
| TILATLNTLI | 40 |
| TILDDNLYKV | 1080 |
| TINVNSLAL | 1980 |
| TISGNIYSA | 85 |
| TISGNIYSAL | 9.3 |
| TLIQYRQQL | 128 |
| TLISSDGARV | 142 |
| TLLGLILFVL | 169 |

| Sequence | IC50 [nM] |
| --- | --- |
| TLLIKTLSPA | 1 |
| TLLNETAKV | 246 |
| TLNTLITLI | 0.99 |
| TLNTLITLIL | 150 |
| TLPELNLSL | 135 |
| TLVKSGLTEV | 64 |
| TMSIYIAVA | 81 |
| TTFITVLTSV | 1120 |
| TTIGTIAGGV | 741 |
| TTLLNETAKV | 1640 |
| TVGMSIVCIV | 528 |
| TVLTSVDIET | 1720 |
| TVPTNDHIPV | 1680 |
| TVQEFIFSAL | 81 |
| VIIMAINVFT | 320 |
| VIKLVKSLV | 1030 |
| VISVIFYFI | 1.4 |

These sequences were tested against HLA-A*02:06 in the same assay as above. Settings: source organism: Hepacivirus hominis.

| Sequence | IC50 [nM] |
| --- | --- |
| SMGNTLTCYV | 205 |
| SMMSFSAAL | 106 |
| TLLGCWSFV | 134 |
| TSISGVLWTV | 82 |

Same assay, conditions: source organism: Influenza A virus

| Sequence | IC50 [nM] |
| --- | --- |
| SSLENFRAYV | 44 |
| TSFFYRYGFV | 851 |

Same assay, conditions: source organism: Mammarenavirus brazilense

| Sequence | IC50 [nM] |
| --- | --- |
| TSLGLLYTV | 4.2 |

Same assay, conditions: source organism: Mammarenavirus guanaritoense

| Sequence | IC50 [nM] |
| --- | --- |
| TLVDLCFWS | 134 |
| TSVDLNAPV | 26 |

Same assay, conditions: source organism: Mammarenavirus whitewaterense

| Sequence | IC50 [nM] |
| --- | --- |
| TVIKTLLEV | 17 |

Same assay, conditions: source organism: SARS-CoV1

| Sequence | IC50 [nM] |
| --- | --- |
| SLVKPTVYV | 473 |
| TLDAANHSI | 29 |
| TLGVYDYLV | 75 |
| TLIDFYLCFL | 3 |
| TLLCVLAALV | 65 |
| TMADLVYAL | 47 |
| TQWSLFFFV | 0.81 |
| VIADYNYKL | 69 |

Same assay, conditions: source organism: Vaccinia virus WR

| Sequence | IC50 [nM] |
| --- | --- |
| SLVITYCLVT | 824 |
| SLVSKHWEL | 35 |
| SMSQELAELL | 474 |
| SMYGKAFNHA | 4 |
| SMYVIPDELI | 492 |
| SQFSYKELYV | 71 |
| STDQDTMLFA | 2020 |
| STISWMMKL | 12 |
| STSPTRTWKV | 504 |
| STTENAAYQV | 101 |
| STYPGNTFV | 0.46 |
| SVDVDIYDAV | 3.3 |
| SVIFYFISI | 0.17 |
| SVKNLILNFL | 551 |
| SVMNFIPII | 2.8 |
| TAYIGTSNWT | 220 |
| TIAGGVCYYL | 4 |
| TIAHINTLI | 571 |
| TIAVSVYGA | 99 |
| TICLKNEGV | 311 |
| TIDAINKCV | 406 |
| TIDKSSPLYI | 1820 |
| TIDNIVTSL | 2730 |
| TIFDIVSKCI | 701 |
| TIGTIAGGV | 1140 |
| TIKESLLKET | 87 |

| Sequence | IC50 [nM] |
| --- | --- |
| TILATLNTLI | 335 |
| TILDDNLYKV | 49 |
| TINVNSLAL | 2180 |
| TISGNIYSA | 179 |
| TISGNIYSAL | 2670 |
| TLIQYRQQL | 1880 |
| TLISSDGARV | 1220 |
| TLLGLILFVL | 672 |
| TLLIKTLSPA | 0.73 |
| TLLNETAKV | 11 |
| TLNTLITLI | 941 |
| TLNTLITLIL | 826 |
| TLPELNLSL | 802 |
| TLVKSGLTEV | 45 |
| TMSIYIAVA | 786 |
| TTFITVLTSV | 166 |
| TTIGTIAGGV | 84 |
| TTLLNETAKV | 1650 |
| TVGMSIVCIV | 200 |
| TVLTSVDIET | 961 |
| TVPTNDHIPV | 515 |
| TVQEFIFSAL | 44 |
| VIIMAINVFT | 674 |
| VIKLVKSLV | 4120 |
| VISVIFYFI | 497 |

What follows are sequences tested against HLA-A*02:01 in the same assay as above. Settings: source organism: Hepacivirus hominis.

| Sequence | IC50 [nM] |
| --- | --- |
| SMGNTLTCYV | 100 |
| SMMSFSAAL | 13 |
| TLLGCWSFV | 30 |
| TSISGVLWTV | 26 |

Same assay, conditions: source organism: Influenza A virus

| Sequence | IC50 [nM] |
| --- | --- |
| SSLENFRAYV | 172 |
| TSFFYRYGFV | 1100 |

Same assay, conditions: source organism: Mammarenavirus brazilense

| Sequence | IC50 [nM] |
| --- | --- |
| TSLGLLYTV | 115 |

Same assay, conditions: source organism: Mammarenavirus guanaritoense

| Sequence | IC50 [nM] |
| --- | --- |
| TLVDLCFWS | 61 |
| TSVDLNAPV | 464 |

Same assay, conditions: source organism: Mammarenavirus whitewaterense

| Sequence | IC50 [nM] |
| --- | --- |
| TVIKTLLEV | 276 |

Same assay, conditions: source organism: SARS-CoV1

| Sequence | IC50 [nM] |
| --- | --- |
| SLVKPTVYV | 106 |
| TLDAANHSI | 9.6 |
| TLGVYDYLV | 2.7 |
| TLIDFYLCFL | 2.2 |
| TLLCVLAALV | 29 |
| TMADLVYAL | 6.5 |
| TQWSLFFFV | 0.77 |
| VIADYNYKL | 24 |

Same assay, conditions: source organism: Vaccinia virus WR

| Sequence | IC50 [nM] |
| --- | --- |
| SLVITYCLVT | 373 |
| SLVSKHWEL | 2.7 |
| SMSQELAELL | 32 |
| SMYGKAFNHA | 9.7 |
| SMYVIPDELI | 380 |
| SQFSYKELYV | 121 |
| STDQDTMLFA | 3520 |
| STISWMMKL | 55 |
| STSPTRTWKV | 741 |
| STTENAAYQV | 1180 |
| STYPGNTFV | 64 |
| SVDVDIYDAV | 153 |
| SVIFYFISI | 79 |
| SVKNLILNFL | 2210 |
| SVMNFIPII | 1.7 |
| TAYIGTSNWT | 4150 |
| TIAGGVCYYL | 0.24 |
| TIAHINTLI | 255 |
| TIAVSVYGA | 104 |
| TICLKNEGV | 547 |
| TIDAINKCV | 783 |
| TIDKSSPLYI | 1900 |
| TIDNIVTSL | 2670 |
| TIFDIVSKCI | 596 |
| TIGTIAGGV | 772 |
| TIKESLLKET | 85 |

| Sequence | IC50 [nM] |
| --- | --- |
| TILATLNTLI | 184 |
| TILDDNLYKV | 239 |
| TINVNSLAL | 1530 |
| TISGNIYSA | 207 |
| TISGNIYSAL | 1110 |
| TLIQYRQQL | 134 |
| TLISSDGARV | 621 |
| TLLGLILFVL | 35 |
| TLLIKTLSPA | 0.49 |
| TLLNETAKV | 28 |
| TLNTLITLI | 51 |
| TLNTLITLIL | 45 |
| TLPELNLSL | 62 |
| TLVKSGLTEV | 9.2 |
| TMSIYIAVA | 136 |
| TTFITVLTSV | 271 |
| TTIGTIAGGV | 978 |
| TTLLNETAKV | 2880 |
| TVGMSIVCIV | 526 |
| TVLTSVDIET | 1260 |
| TVPTNDHIPV | 1670 |
| TVQEFIFSAL | 321 |
| VIIMAINVFT | 641 |
| VIKLVKSLV | 881 |
| VISVIFYFI | 331 |
